B1: Human IL-17F, Q96PD4 31-163 (ligand, UniProt Q96PD4 31-163, looked up)
chain: RKIPKVGHTFFQKPESCPPVPGGSMKLDIGIINENQRVSMSRNIESRSTSPWNYTVTWDPNRYPSEVVQAQCRNLGCINAQGKEDISMNSVPIQQETLVVRRKHQGCSVSFQLEKVLVTVGCTCVTPVIHHVQ
B2: Human IL-17F (ligand, UniProt Q96PD4 31-163, looked up)
chain: B1 chain

Legend:
[1] = target: Human IL-17RA:Fc (human), Q96F46; experiment: SPR (BIAcore 3000), receptor:Fc captured by anti-human Fc, cytokine as analyte, koff/kon, 1:1 Langmuir fit; settings: remark: other sources report otherwise
[2] = target: Human IL-17RC:Fc (human) (UniProt Q8NAC3); experiment: as above

Row | Binder | Kd [1] [nM] | Kd [2] [nM]
1 | B1 | 100 | 
2 | B2 |  | 0.1
